Laboratory results taken from EP2336190A2 (Genentech, Inc., dated 2011).
Numbering of substitutions follows the chain as printed. Names and notes keep the numbering of the source.

T1: VEGF121 (human, UniProt P15692 27-147)
T1 construct: mature; also called Purified VEGF121
T1 sequence (looked up): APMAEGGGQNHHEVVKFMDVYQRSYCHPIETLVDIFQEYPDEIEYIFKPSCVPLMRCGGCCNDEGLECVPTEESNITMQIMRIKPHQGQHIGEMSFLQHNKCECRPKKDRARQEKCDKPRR

B1: muMAb VEGF A.4.6.1 (antibody, V domains shown)
VH: EIQLVQSGPELKQPGETVRISCKASGYTFTNYGMNWVKQAPGKGLKWMGWINTYTGEPTYAADFKRRFTFSLETSASTAYLQISNLKNDDTATYFCAKYPHYYGSSHWYFDVWGAGTTVTVSS
VL: DIQMTQTTSSLSASLGDRVIISCSASQDISNYLNWYQQKPDGTVKVLIYFTSSLHSGVPSRFSGSGSGTDYSLTISNLEPEDIATYYCQQYSTVPWTFGGGTKLEIKR
B2: hu2.10 (Fab, V domains shown)
VH: EVQLVESGGGLVQPGGSLRLSCAASGYTFTNYGMNWIRQAPGKGLEWVGWINTYTGEPTYAADFKRRFTISLDTSASTVYLQMNSLRAEDTAVYYCAKYPHYYGSSHWYFDVWGQGTLVTVSS
VL: DIQMTQSPSSLSASVGDRVTITCSASQDISNYLNWYQQKPGKAPKLLIYFTSSLHSGVPSRFSGSGSGTDYTLTISSLQPEDFATYYCQQYSTVPWTFGQGTKVEIK
notes: Phage-selected consensus clone, purified soluble Fab with human constant domains; also called consensus clone hu2.10
B3: hu2.10V (Fab, V domains shown)
VH: B2 VH
VL: B2 VL with L46V
notes: Soluble Fab with human constant domains; also called hu2.10 with mutation VL Leu->Val
B4: pY0192 VH F110A (Fab, V domains shown)
VH: EVQLVESGGGLVQPGGSLRLSCAASGYTFTNYGINWVRQAPGKGLEWVGWINTYTGEPTYAADFKRRFTFSLDTSKSTAYLQMNSLRAEDTAVYYCAKYPHYYGSSHWYADVWGQGTL
VL: DIQLTQSPSSLSASVGDRVTITCRANEQLSNYLNWYQQKPGKAPKVLIYFTSSLHSGVPSRFSGSGSGTDFTLTISSLQPEDFATYYCQQYSTVPWTFGQGTKVEIKR
B5: Y0244-1 (Fab, V domains shown)
VH: B4 VH with L72V, T74V, A110F
VL: B4 VL
notes: only the randomized region is printed, substitutions deduced against Y0192; soluble Fab from E. coli 34B8
B6: Y0238-7 (Fab, V domains shown)
VH: B4 VH with H101Y, Y103W, S105T, A110F
VL: B4 VL
notes: Library YC-81 (VH3) on the pY0192 template; substitutions deduced against Y0192; soluble Fab
B7: Y0313-3 (Fab, V domains shown)
VH: B4 VH with H101Y, A110F
VL: B4 VL
notes: Reversion mutant of Y0238-3; soluble Fab
B8: Y0238-1 (Fab, V domains shown)
VH: B4 VH with H101Y, Y103R, S105T, A110F
VL: B4 VL
notes: as for B6
B9: Y0244-4 (Fab, V domains shown)
VH: B4 VH with L72I, T74K, A110F
VL: B4 VL
notes: substitutions deduced against Y0192; soluble Fab
B10: Y0313-1 (Fab, V domains shown)
VH: B4 VH with T28D, N31H, I34M, H101Y, S105T, A110F
VL: B4 VL
notes: Combination variant: Y0243-1 plus VH3 H101Y and S105T; soluble Fab
B11: Y0243-1 (Fab, V domains shown)
VH: B4 VH with T28D, N31H, I34M, A110F
VL: B4 VL
notes: CDRH1 variant (T28D, N31H) from library HL-265; soluble Fab
B12: Y0238-10 (Fab, V domains shown)
VH: B4 VH with H101Y, Y103R, G104N, S105T, A110F
VL: B4 VL
notes: as for B6
B13: Y0238-3 (Fab, V domains shown)
VH: B4 VH with H101Y, S105T, A110F
VL: B4 VL
notes: CDRH3 variant (H101Y, S105T) from library YC-81; soluble Fab
B14: Y0238-5 (Fab, V domains shown)
VH: B4 VH with H101Y, Y103I, G104A, S105K, A110F
VL: B4 VL
notes: as for B6

Key:
[1] = molecular target: T2, VEGF (human, UniProt P15692-4 27-191, limits assumed); assay: KDR-IgG competition ELISA, biotinylated VEGF, 10% human serum
T2 construct: also called human VEGF; vascular endothelial growth factor

[2] = molecular target: T1, VEGF121; assay: BIAcore SPR, VEGF121 immobilised, Fab in solution
[3] = molecular target: T1, VEGF121; assay: BIAcore SPR, VEGF121 immobilised
[4] = molecular target: T2, VEGF; assay: competitive phage-ELISA, wt = pY0192
Target sequence in this assay (P15692 other isoform, or with tags, fused parts or gaps limits assumed): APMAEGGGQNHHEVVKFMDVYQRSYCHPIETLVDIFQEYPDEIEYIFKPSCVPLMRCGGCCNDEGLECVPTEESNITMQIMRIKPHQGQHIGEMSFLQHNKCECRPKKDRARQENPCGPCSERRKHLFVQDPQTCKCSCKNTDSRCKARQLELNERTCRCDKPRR

[5] = molecular target: T2, VEGF; assay: BIAcore-2000 SPR, wt = Y0192
Target sequence in this assay (P15692 other isoform, or with tags, fused parts or gaps limits assumed): as above

[6] = molecular target: rhVEGF165 (human, UniProt P15692 27-191); assay: cell-based or functional assay

| Binder | Kd (wt) / Kd (mut) [5] [ratio] | further results |
| --- | --- | --- |
| B1 | – | IgG1/chIgG1 (EC50 ratio) [1]: 0.759 |
| B2 | – | KD(A4.6.1)/KD(mut) as headed (values are KD(mut) over KD of the chimera) [2]: 35 ratio |
| B3 | – | fold improvement in KD over hu2.10 [3]: 6 fold; KD(A4.6.1)/KD(mut) as headed (values are KD(mut) over KD of the chimera) [2]: 5.8 ratio |
| B4 | – | IC50 (mut) / IC50 (wt) [4]: 25 |
| B5 | 3.6 | – |
| B6 | ≥ 7.3 | – |
| B7 | 4.5 | – |
| B8 | 7.3 | – |
| B9 | 0.9 | – |
| B10 | ≥ 20 | potency in inhibiting VEGF-induced HuVEC DNA synthesis, against the wild-type Fab (Y0192) [6]: 30 fold |
| B11 | 4.1 | – |
| B12 | 4.8 | – |
| B13 | ≥ 14 | – |
| B14 | 3.2 | – |
